Values joined by “and” are separate entries in the source; they are usually repeats but may differ in a detail not shown here. Identical values can stand only once. Square brackets hold non-standard residues; d marks the D form. Primed or numbered codes have the meaning given here. Ends that are not written are not given here. mPEG‑MAL 20 kDa = maleimido methoxyPEG of about 20 kDa, linked to the Cys sulfur; mPEG‑MAL 5 kDa = maleimido methoxyPEG of about 5 kDa, linked to the Cys sulfur; Abu(4-SO3H) = N[C@@H](CCS(=O)(=O)O)C(=O)O; PhLac = O=C(O)[C@@H](O)Cc1ccccc1; Aad = N[C@@H](CCCC(=O)O)C(=O)O; CH2CH2COOH′ = not defined here
Each molecule was assayed against T1, human glucagon receptor (human, UniProt P47871 26-477) (assay: cell-based or functional assay).
T1 sequence (P47871 26-477): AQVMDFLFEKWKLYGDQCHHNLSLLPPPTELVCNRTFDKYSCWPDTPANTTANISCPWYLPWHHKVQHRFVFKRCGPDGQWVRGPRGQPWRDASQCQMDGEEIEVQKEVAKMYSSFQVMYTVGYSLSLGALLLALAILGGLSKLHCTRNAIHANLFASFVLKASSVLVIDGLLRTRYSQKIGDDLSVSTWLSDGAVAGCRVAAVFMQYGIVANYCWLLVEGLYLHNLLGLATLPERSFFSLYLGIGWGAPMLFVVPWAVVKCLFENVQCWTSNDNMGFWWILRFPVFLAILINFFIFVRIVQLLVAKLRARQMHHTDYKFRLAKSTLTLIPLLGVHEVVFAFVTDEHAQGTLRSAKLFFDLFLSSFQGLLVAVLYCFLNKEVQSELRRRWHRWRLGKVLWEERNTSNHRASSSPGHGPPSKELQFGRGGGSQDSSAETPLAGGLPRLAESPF

| Molecule | cAMP IC50 |
| --- | --- |
| FTS[Aad]YSKYLDSRRAQDFVQWLMNT-NH2 (N-terminus assumed; SMILES CSCC[C@H](NC(=O)[C@H](CC(C)C)NC(=O)[C@H](Cc1c[nH]c2ccccc12)NC(=O)[C@H](CCC(N)=O)NC(=O)[C@@H](NC(=O)[C@H](Cc1ccccc1)NC(=O)[C@H](CC(=O)O)NC(=O)[C@H](CCC(N)=O)NC(=O)[C@H](C)NC(=O)[C@H](CCCNC(=N)N)NC(=O)[C@H](CCCNC(=N)N)NC(=O)[C@H](CO)NC(=O)[C@H](CC(=O)O)NC(=O)[C@H](CC(C)C)NC(=O)[C@H](Cc1ccc(O)cc1)NC(=O)[C@H](CCCCN)NC(=O)[C@H](CO)NC(=O)[C@H](Cc1ccc(O)cc1)NC(=O)[C@H](CCCC(=O)O)NC(=O)[C@H](CO)NC(=O)[C@@H](NC(=O)[C@@H](N)Cc1ccccc1)[C@@H](C)O)C(C)C)C(=O)N[C@@H](CC(N)=O)C(=O)N[C@H](C(N)=O)[C@@H](C)O) [[hGlu^9]Glucagon(aa6-29)-NH2] | 472 nM |
| FTSDYSKYLDSRRAQDFVQWLMNT-NH2 [Glucagon(aa6-29)-NH2] | 346 nM |
| FTSC(CH2CH2COOH′)YSKYLDSRRAQDFVQWLMNT-NH2 [[(CSA-2)^9]Glucagon(aa6-29)-NH2] | 116 nM |
| FTSKYSKYLDSRRAQDFVQWLMNT-NH2 [[Lys^9]Glucagon(aa6-29)-NH2] | 398 nM |
| FTSC(CH2COOH)YSKYLDSRRAQDFVQWLMNT-NH2 [[(CSA-1)^9]Glucagon(aa6-29)-NH2] | 101 nM |

Molecular target: T1, human glucagon receptor
Test: cell-based or functional assay
Remark: another data set of the same source

| Molecule | cAMP Induction EC50 | cAMP Inhibition IC50 |
| --- | --- | --- |
| SQLTFTS[Abu(4-SO3H)]YSKYLDSRRAQDFVQFLLNT-NH2 (N-terminus assumed; SMILES CC(C)C[C@H](NC(=O)[C@H](Cc1ccc(O)cc1)NC(=O)[C@H](CCCCN)NC(=O)[C@H](CO)NC(=O)[C@H](Cc1ccc(O)cc1)NC(=O)[C@H](CCS(=O)(=O)O)NC(=O)[C@H](CO)NC(=O)[C@@H](NC(=O)[C@H](Cc1ccccc1)NC(=O)[C@@H](NC(=O)[C@H](CC(C)C)NC(=O)[C@H](CCC(N)=O)NC(=O)[C@@H](N)CO)[C@@H](C)O)[C@@H](C)O)C(=O)N[C@@H](CC(=O)O)C(=O)N[C@@H](CO)C(=O)N[C@@H](CCCNC(=N)N)C(=O)N[C@@H](CCCNC(=N)N)C(=O)N[C@@H](C)C(=O)N[C@@H](CCC(N)=O)C(=O)N[C@@H](CC(=O)O)C(=O)N[C@@H](Cc1ccccc1)C(=O)N[C@H](C(=O)N[C@@H](CCC(N)=O)C(=O)N[C@@H](Cc1ccccc1)C(=O)N[C@@H](CC(C)C)C(=O)N[C@@H](CC(C)C)C(=O)N[C@@H](CC(N)=O)C(=O)N[C@H](C(N)=O)[C@@H](C)O)C(C)C) [[desHis^1, Leu^4, hCys^9(SO3-), Phe^25, Leu^27] Glucagon-NH2] | 1610 nM | 4460 nM |
| SQGTTS[Abu(4-SO3H)]YSKYLDSRRAQDFVQFLLNT-NH2 (N-terminus assumed; SMILES CC(C)C[C@H](NC(=O)[C@H](Cc1ccc(O)cc1)NC(=O)[C@H](CCCCN)NC(=O)[C@H](CO)NC(=O)[C@H](Cc1ccc(O)cc1)NC(=O)[C@H](CCS(=O)(=O)O)NC(=O)[C@H](CO)NC(=O)[C@@H](NC(=O)[C@@H](NC(=O)CNC(=O)[C@H](CCC(N)=O)NC(=O)[C@@H](N)CO)[C@@H](C)O)[C@@H](C)O)C(=O)N[C@@H](CC(=O)O)C(=O)N[C@@H](CO)C(=O)N[C@@H](CCCNC(=N)N)C(=O)N[C@@H](CCCNC(=N)N)C(=O)N[C@@H](C)C(=O)N[C@@H](CCC(N)=O)C(=O)N[C@@H](CC(=O)O)C(=O)N[C@@H](Cc1ccccc1)C(=O)N[C@H](C(=O)N[C@@H](CCC(N)=O)C(=O)N[C@@H](Cc1ccccc1)C(=O)N[C@@H](CC(C)C)C(=O)N[C@@H](CC(C)C)C(=O)N[C@@H](CC(N)=O)C(=O)N[C@H](C(N)=O)[C@@H](C)O)C(C)C) [[desHis^1, desPhe^6, hCys^9(SO3-), Phe^25, Leu^27] Glucagon-NH2] | 3210 nM | 9220 nM |
| SQGTFTS[Abu(4-SO3H)]YSKYLDSRRAQDFVQFLLNT-NH2 (N-terminus assumed; SMILES CC(C)C[C@H](NC(=O)[C@H](Cc1ccc(O)cc1)NC(=O)[C@H](CCCCN)NC(=O)[C@H](CO)NC(=O)[C@H](Cc1ccc(O)cc1)NC(=O)[C@H](CCS(=O)(=O)O)NC(=O)[C@H](CO)NC(=O)[C@@H](NC(=O)[C@H](Cc1ccccc1)NC(=O)[C@@H](NC(=O)CNC(=O)[C@H](CCC(N)=O)NC(=O)[C@@H](N)CO)[C@@H](C)O)[C@@H](C)O)C(=O)N[C@@H](CC(=O)O)C(=O)N[C@@H](CO)C(=O)N[C@@H](CCCNC(=N)N)C(=O)N[C@@H](CCCNC(=N)N)C(=O)N[C@@H](C)C(=O)N[C@@H](CCC(N)=O)C(=O)N[C@@H](CC(=O)O)C(=O)N[C@@H](Cc1ccccc1)C(=O)N[C@H](C(=O)N[C@@H](CCC(N)=O)C(=O)N[C@@H](Cc1ccccc1)C(=O)N[C@@H](CC(C)C)C(=O)N[C@@H](CC(C)C)C(=O)N[C@@H](CC(N)=O)C(=O)N[C@H](C(N)=O)[C@@H](C)O)C(C)C) [[desHis^1, hCys^9(SO3-), Phe^25, Leu^27] Glucagon-NH2] | 430 nM | – |
| SQGTFTSEYSKYLDSRRAQDFVQFLLNT-NH2 [[desHis^1, Glu^9, Phe^25, Leu^27]Glucagon-NH2] | 81 nM | – |
| SQLTFTSEYSKYLDSRRAQDFVQWLMNT-NH2 [[desHis^1, Leu^4, Glu^9] Glucagon-NH2] | 318 nM | 102 nM |

Molecular target: T1, human glucagon receptor
Test: cell-based or functional assay
Remark: another data set of the same source

| Molecule | IC50 (nM) (cAMP, inhibit Glucagon) 0.1 nM or 0.2 nM |
| --- | --- |
| [PhLac]TSDYSKYLDSRRAQDFVQWLMNT-OH (N-terminus assumed; SMILES CSCC[C@H](NC(=O)[C@H](CC(C)C)NC(=O)[C@H](Cc1c[nH]c2ccccc12)NC(=O)[C@H](CCC(N)=O)NC(=O)[C@@H](NC(=O)[C@H](Cc1ccccc1)NC(=O)[C@H](CC(=O)O)NC(=O)[C@H](CCC(N)=O)NC(=O)[C@H](C)NC(=O)[C@H](CCCNC(=N)N)NC(=O)[C@H](CCCNC(=N)N)NC(=O)[C@H](CO)NC(=O)[C@H](CC(=O)O)NC(=O)[C@H](CC(C)C)NC(=O)[C@H](Cc1ccc(O)cc1)NC(=O)[C@H](CCCCN)NC(=O)[C@H](CO)NC(=O)[C@H](Cc1ccc(O)cc1)NC(=O)[C@H](CC(=O)O)NC(=O)[C@H](CO)NC(=O)[C@@H](NC(=O)[C@@H](O)Cc1ccccc1)[C@@H](C)O)C(C)C)C(=O)N[C@@H](CC(N)=O)C(=O)N[C@H](C(=O)O)[C@@H](C)O) [[PLA6, D9]Glucagon(aa6-29)-COOH] | 13.2 nM |
| [PhLac]TSDYSKYLDSRRAQDFVQWLMNT-NH2 (N-terminus assumed; SMILES CSCC[C@H](NC(=O)[C@H](CC(C)C)NC(=O)[C@H](Cc1c[nH]c2ccccc12)NC(=O)[C@H](CCC(N)=O)NC(=O)[C@@H](NC(=O)[C@H](Cc1ccccc1)NC(=O)[C@H](CC(=O)O)NC(=O)[C@H](CCC(N)=O)NC(=O)[C@H](C)NC(=O)[C@H](CCCNC(=N)N)NC(=O)[C@H](CCCNC(=N)N)NC(=O)[C@H](CO)NC(=O)[C@H](CC(=O)O)NC(=O)[C@H](CC(C)C)NC(=O)[C@H](Cc1ccc(O)cc1)NC(=O)[C@H](CCCCN)NC(=O)[C@H](CO)NC(=O)[C@H](Cc1ccc(O)cc1)NC(=O)[C@H](CC(=O)O)NC(=O)[C@H](CO)NC(=O)[C@@H](NC(=O)[C@@H](O)Cc1ccccc1)[C@@H](C)O)C(C)C)C(=O)N[C@@H](CC(N)=O)C(=O)N[C@H](C(N)=O)[C@@H](C)O) [[PLA6, D9]Glucagon(aa6-29)-NH2] | 6.9 nM |

Molecular target: T1, human glucagon receptor
Test: cell-based or functional assay
Remark: another data set of the same source

| Molecule | cAMP (I/A)50, inhibition index |
| --- | --- |
| FTS[Aad]YSKYLDSRRAQDFVQWLMNT-NH2 (N-terminus assumed; SMILES CSCC[C@H](NC(=O)[C@H](CC(C)C)NC(=O)[C@H](Cc1c[nH]c2ccccc12)NC(=O)[C@H](CCC(N)=O)NC(=O)[C@@H](NC(=O)[C@H](Cc1ccccc1)NC(=O)[C@H](CC(=O)O)NC(=O)[C@H](CCC(N)=O)NC(=O)[C@H](C)NC(=O)[C@H](CCCNC(=N)N)NC(=O)[C@H](CCCNC(=N)N)NC(=O)[C@H](CO)NC(=O)[C@H](CC(=O)O)NC(=O)[C@H](CC(C)C)NC(=O)[C@H](Cc1ccc(O)cc1)NC(=O)[C@H](CCCCN)NC(=O)[C@H](CO)NC(=O)[C@H](Cc1ccc(O)cc1)NC(=O)[C@H](CCCC(=O)O)NC(=O)[C@H](CO)NC(=O)[C@@H](NC(=O)[C@@H](N)Cc1ccccc1)[C@@H](C)O)C(C)C)C(=O)N[C@@H](CC(N)=O)C(=O)N[C@H](C(N)=O)[C@@H](C)O) [[hGlu^9]Glucagon(aa6-29)-NH2] | 2360 ratio |
| FTSDYSKYLDSRRAQDFVQWLMNT-NH2 [Glucagon(aa6-29)-NH2] | 1730 ratio |
| FTSC(CH2CH2COOH′)YSKYLDSRRAQDFVQWLMNT-NH2 [[(CSA-2)^9]Glucagon(aa6-29)-NH2] | 580 ratio |
| FTSKYSKYLDSRRAQDFVQWLMNT-NH2 [[Lys^9]Glucagon(aa6-29)-NH2] | 1990 ratio |
| FTSC(CH2COOH)YSKYLDSRRAQDFVQWLMNT-NH2 [[(CSA-1)^9]Glucagon(aa6-29)-NH2] | 506 ratio |

Molecular target: T1, human glucagon receptor
Test: cell-based or functional assay
Remark: another data set of the same source

| Molecule | IC50 (nM) (cAMP, inhibit 0.2 mM Glucagon) | cAMP Induction EC50 |
| --- | --- | --- |
| [d-Cys5(20kDaPEG), E9]Glucagon(aa5-29) -NH2 (peptide) | 14800 nM | – |
| Oxyntomodulin (from UniProt P01275 53-89) (peptide) | – | 3.25 nM |
| Oxyntomodulin C24 (from UniProt P01275 53-89) (peptide) | – | 2.54 nM |
| Oxyntomodulin C24 PEG 20 K (from UniProt P01275 53-89) (peptide) | – | 0.97 nM |

Molecular target: T1, human glucagon receptor
Test: cell-based or functional assay
Remark: another data set of the same source

| Molecule | IC50 (nM) (cAMP, inhibit 0.2 mM Glucagon) |
| --- | --- |
| [PhLac]TC(mPEG‑MAL 5 kDa)EYSKYLDSRRAQDFVQWLMNT-NH2 [[PLA6, C8(5kDaPEG), E9]Glucagon(aa6-29) -NH2] | 216 nM |
| C(5 kDa PEG)FTSEYSKYLDSRRAQDFVQWLMNT-NH2 [[C5(5kDaPEG), E9]Glucagon(aa5-29) -NH2] | 1610 nM |
| C(3.4 kDa PEG)FTSEYSKYLDSRRAQDFVQWLMNT-NH2 (also: dimer: the two Cys5 joined by 3.4 kDa PEG) [3.4kDaPEG-dimer[C5, E9]Glucagon(aa5-29) -NH2] | 1340 nM |
| C(1.2 kDa PEG)FTSEYSKYLDSRRAQDFVQWLMNT-NH2 [[C5(1.2kDaPEG), E9]Glucagon(aa5-29) -NH2] | 2280 nM |
| [PhLac]TC(mPEG‑MAL 20 kDa)EYSKYLDSRRAQDFVQWLMNT-NH2 [[PLA6, C8(20kDaPEG), E9]Glucagon(aa6-29)-NH2] | 236 nM and 92 nM |
| [PhLac]TSEYSKYLDSRRAQDFVC(m‑dPEG24‑MAL)WLMNT-NH2 [[PLA6, E9 ,C24(1.2 kDaPEG)]Glucagon(aa6-29) -NH2] | 18 nM |
| [PhLac]TSEYC(mPEG‑MAL 20 kDa)KYLDSRRAQDFVQWLMNT-NH2 [[PLA6, E9, C11(20kDaPEG)]Glucagon(aa6-29)-NH2] | 664 nM |
| [PhLac]TSEYSKYLDSRRAQDFVC(mPEG‑MAL 20 kDa)WLMNT-NH2 [[PLA6, E9, C24(20kDaPEG)]Glucagon(aa6-29)-NH2] | 126 nM |
| C(20 kDa PEG)FTSEYSKYLDSRRAQDFVQWLMNT-NH2 [[C5(20kDaPEG), E9]Glucagon(aa5-29) -NH2] | 976 nM |

Reference: patent US20120122783A1 (INDIANA UNIVERSITY RESEARCH AND TECHOLOGY, published 2012)
